Drawing on patent US20060073571A1, this text covers intracellular cAMP in transfected Sf9 cells in the absence of hCG for one substance.

This test has as its target recombinant chimeric hLH-R-hCG-β fusion protein (full-length human lutropin hormone receptor, Arg-Ser linker, full-length human chorionic gonadotropin-β) (human). Kind of test: cell-based or functional assay.

recombinant chimeric hLH-R-hCG-β fusion protein (full-length human lutropin hormone receptor, Arg-Ser linker, full-length human chorionic gonadotropin-β) (human), sequence (chain, as listed by the source mutant limits assumed): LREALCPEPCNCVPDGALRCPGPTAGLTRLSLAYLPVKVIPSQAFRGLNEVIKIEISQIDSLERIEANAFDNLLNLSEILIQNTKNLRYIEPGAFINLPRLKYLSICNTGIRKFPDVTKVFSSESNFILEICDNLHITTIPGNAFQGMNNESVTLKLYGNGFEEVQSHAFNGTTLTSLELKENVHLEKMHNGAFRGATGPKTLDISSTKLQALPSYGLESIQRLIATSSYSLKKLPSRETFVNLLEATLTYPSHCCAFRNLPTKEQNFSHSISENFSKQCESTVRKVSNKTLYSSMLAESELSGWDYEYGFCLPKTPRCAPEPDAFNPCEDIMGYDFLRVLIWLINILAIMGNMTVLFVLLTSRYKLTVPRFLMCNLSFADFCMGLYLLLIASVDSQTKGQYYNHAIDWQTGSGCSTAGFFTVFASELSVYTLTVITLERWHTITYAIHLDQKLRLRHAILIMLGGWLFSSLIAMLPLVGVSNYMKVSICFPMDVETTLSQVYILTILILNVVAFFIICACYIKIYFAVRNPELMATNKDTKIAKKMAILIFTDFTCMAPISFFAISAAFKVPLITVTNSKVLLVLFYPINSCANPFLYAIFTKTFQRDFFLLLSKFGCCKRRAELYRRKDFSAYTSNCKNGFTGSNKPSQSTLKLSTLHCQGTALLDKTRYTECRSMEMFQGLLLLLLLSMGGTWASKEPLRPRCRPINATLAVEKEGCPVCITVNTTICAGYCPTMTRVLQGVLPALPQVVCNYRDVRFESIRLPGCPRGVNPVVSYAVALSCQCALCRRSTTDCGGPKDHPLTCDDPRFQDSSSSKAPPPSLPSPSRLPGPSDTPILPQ

In the case of “hCG-β component of the chimeric hLH-R-hCG-β protein (full-length human chorionic gonadotropin-β subunit) (from UniProt P0DN86 21-165) (ligand)”, the intracellular cAMP in transfected Sf9 cells in the absence of hCG was 13.2 pmol/L.
